Molecular target: HLA-B*44:05 (Homo sapiens, UniProt P01889, A223V/A65T/A93T/A95T/D201E/D98Y/E176V/E187L/E204Q/E69K/G107R/H137Y/K202T/L105A/L119I/N104T/N87E/Q56L/Q94N/R106L/R155S/R180D/S101N/S121R/S35A/S48T/T118I/V36M/W191S/Y91S)
Test: MHC binding assay (UV-ligand exchange, β2m ELISA, peptide exchange yield)
Conditions: binding to HLA-B*44:05
Excerpt: Candidate peptides for T cell-based therapies according to the present invention were further tested for their MHC binding capacity (affinity). The individual peptide-MHC complexes were produced by UV-ligand exchange, where a UV-sensitive peptide is cleaved upon UV-irradiation and exchanged with the peptide of interest as analyzed. Only peptide candidates that can effectively bind and stabilize the peptide-receptive MHC molecules prevent dissociation of the MHC complexes. To determine the yield of the exchange reaction, an ELISA was performed based on the detection of the light chain (β2m) of stabilized MHC complexes. The assay was performed as generally described in Rodenko et al. (Rodenko et al., 2006)
96 well MAXISorp plates (NUNC) were coated over night with 2 μg/ml streptavidin in PBS at room temperature, washed 4× and blocked for 1 h at 37° C. in 2% BSA containing blocking buffer. Refolded HLA-A*02:01/MLA-001 monomers served as standards, covering the range of 15-500 ng/ml. Peptide-MHC monomers of the UV-exchange reaction were diluted 100-fold in blocking buffer. Samples were incubated for 1h at 37° C., washed four times, incubated with 2 μg/ml HRP conjugated anti-β2m for 1h at 37° C., washed again and detected with TMB solution that is stopped with […]. Absorption was measured at 450 nm.

| Substance | Peptide exchange (MHC class I binding score, peptide exchange yield) |
| --- | --- |
| 453 (SESKVFQLL; listed as Homo sapiens) [compound 453] | +++ (>50 = +++) |
| 365 (NESGKAFNY; listed as Homo sapiens) [compound 365] | ++++ (>75% = ++++) |
| 456 (SESPIRISV; listed as Homo sapiens) [compound 456] | +++ (>50 = +++) |
| 129 (EEAMKRLSY; listed as Homo sapiens) [compound 129] | ++ (>20% = ++) |
| 102 (TELADLDAAW; listed as Homo sapiens) [compound 102] | ++++ (>75% = ++++) |
| 309 (SDDLRNVTW; listed as Homo sapiens) [compound 309] | ++++ (>75% = ++++) |
| 424 (EEHVYESIIRW; listed as Homo sapiens) [compound 424] | +++ (>50 = +++) |
| 27 (GETCVRITY; listed as Homo sapiens) [compound 27] | +++ (>50 = +++) |
| 196 (TELEVKIRDW; listed as Homo sapiens) [compound 196] | ++++ (>75% = ++++) |
| 360 (DEMENLLTY; listed as Homo sapiens) [compound 360] | ++++ (>75% = ++++) |
| 265 (EDNLIHKF; listed as Homo sapiens) [compound 265] | ++ (>20% = ++) |
| 411 (AERDLNVTI; listed as Homo sapiens) [compound 411] | +++ (>50 = +++) |
| 451 (REYEDGPLSL; listed as Homo sapiens) [compound 451] | +++ (>50 = +++) |
| 287 (REVSVVDIL; listed as Homo sapiens) [compound 287] | ++++ (>75% = ++++) |
| 212 (SEASVYLFRF; listed as Homo sapiens) [compound 212] | +++ (>50 = +++) |
| 2 (EEFLRPRSL; listed as Homo sapiens) [compound 2] | ++ (>20% = ++) |
| 252 (EEFIGKIGI; listed as Homo sapiens) [compound 252] | ++ (>20% = ++) |
| 335 (SETPTLQGL; listed as Homo sapiens) [compound 335] | +++ (>50 = +++) |
| 246 (HEHGLFNLY; listed as Homo sapiens) [compound 246] | +++ (>50 = +++) |
| 205 (MEIEGAGNFL; listed as Homo sapiens) [compound 205] | ++++ (>75% = ++++) |
| 143 (HEIIIRSHW; listed as Homo sapiens) [compound 143] | +++ (>50 = +++) |
| 178 (MEGAALLKIF; listed as Homo sapiens) [compound 178] | +++ (>50 = +++) |
| 169 (KEHNSSVPWSS; listed as Homo sapiens) [compound 169] | ++++ (>75% = ++++) |
| 327 (SEQHSLPVF; listed as Homo sapiens) [compound 327] | +++ (>50 = +++) |
| 352 (QEDELVKIRKY; listed as Homo sapiens) [compound 352] | +++ (>50 = +++) |
| 237 (QEIGQKTSV; listed as Homo sapiens) [compound 237] | +++ (>50 = +++) |
| 380 (EECGKAFRVF; listed as Homo sapiens) [compound 380] | +++ (>50 = +++) |

Further lines, results first:

| Peptide exchange (MHC class I binding score, peptide exchange yield) | Substance |
| --- | --- |
| ++ (>20% = ++) | 157 (SQDVAGTTF; listed as Homo sapiens) [compound 157] |
| +++ (>50 = +++) | 144 (IEAYLERIGY; listed as Homo sapiens) [compound 144] |
| +++ (>50 = +++) | 222 (SEDTIHTHL; listed as Homo sapiens) [compound 222] |
| ++ (>20% = ++) | 361 (EDASLMGLY; listed as Homo sapiens) [compound 361] |
| ++++ (>75% = ++++) | 455 (QESVHVASYYW; listed as Homo sapiens) [compound 455] |
| +++ (>50 = +++) | 108 (QETNKVETY; listed as Homo sapiens) [compound 108] |
| +++ (>50 = +++) | 426 (AESLFREAL; listed as Homo sapiens) [compound 426] |
| +++ (>50 = +++) | 139 (AESDFSNNML; listed as Homo sapiens) [compound 139] |
| +++ (>50 = +++) | 366 (EECGKAFKKF; listed as Homo sapiens) [compound 366] |
| +++ (>50 = +++) | 219 (WEVEVGDRTDW; listed as Homo sapiens) [compound 219] |
| + (>10% = +) | 227 (ALTEDSIDDTF; listed as Homo sapiens) [compound 227] |
| +++ (>50 = +++) | 86 (QTLKAMVQAW; listed as Homo sapiens) [compound 86] |
| ++++ (>75% = ++++) | 114 (VEVNGVPRW; listed as Homo sapiens) [compound 114] |
| +++ (>50 = +++) | 382 (SELNPLALY; listed as Homo sapiens) [compound 382] |
| +++ (>50 = +++) | 363 (EECDKAFHF; listed as Homo sapiens) [compound 363] |
| +++ (>50 = +++) | 358 (TEFHGGLHY; listed as Homo sapiens) [compound 358] |
| +++ (>50 = +++) | 141 (SEKWFRMGF; listed as Homo sapiens) [compound 141] |
| +++ (>50 = +++) | 128 (TELTEARVQVW; listed as Homo sapiens) [compound 128] |
| ++ (>20% = ++) | 213 (DEDLFHKL; listed as Homo sapiens) [compound 213] |
| +++ (>50 = +++) | 433 (AEEGPSVPKIY; listed as Homo sapiens) [compound 433] |
| +++ (>50 = +++) | 194 (TEGDVLNYIF; listed as Homo sapiens) [compound 194] |
| +++ (>50 = +++) | 445 (QEVGEITNL; listed as Homo sapiens) [compound 445] |
| ++ (>20% = ++) | 377 (AEDARGWTA; listed as Homo sapiens) [compound 377] |
| ++ (>20% = ++) | 217 (EVEVGDRTDW; listed as Homo sapiens) [compound 217] |
